Measured values reported in patent US20140343258A1 (Astellas, published 2014).

T1: human CTGF (human, UniProt P29279 27-349)
T1 construct: also called human CTGF protein; connective tissue growth factor
T1 sequence: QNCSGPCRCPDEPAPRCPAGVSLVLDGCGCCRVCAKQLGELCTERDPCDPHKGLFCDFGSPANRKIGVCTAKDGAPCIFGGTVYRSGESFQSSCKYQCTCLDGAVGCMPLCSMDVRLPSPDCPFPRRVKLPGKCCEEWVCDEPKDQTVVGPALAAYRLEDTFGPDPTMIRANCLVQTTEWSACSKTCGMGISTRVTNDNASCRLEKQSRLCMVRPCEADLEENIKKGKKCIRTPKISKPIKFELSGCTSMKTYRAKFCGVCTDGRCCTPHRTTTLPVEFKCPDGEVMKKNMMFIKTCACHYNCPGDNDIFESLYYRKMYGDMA

T2: rat CTGF (rat, UniProt Q9R1E9 25-347)
T2 construct: mature
T2 sequence (looked up): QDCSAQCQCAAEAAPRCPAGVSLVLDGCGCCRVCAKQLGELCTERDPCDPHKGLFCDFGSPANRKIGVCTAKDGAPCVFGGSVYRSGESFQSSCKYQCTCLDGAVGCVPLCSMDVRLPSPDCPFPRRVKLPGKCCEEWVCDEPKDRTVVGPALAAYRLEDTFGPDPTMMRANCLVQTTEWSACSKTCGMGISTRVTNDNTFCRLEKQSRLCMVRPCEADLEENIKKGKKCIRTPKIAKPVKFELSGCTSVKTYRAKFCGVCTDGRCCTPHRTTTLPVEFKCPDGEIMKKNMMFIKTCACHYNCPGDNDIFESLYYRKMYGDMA

T3: mouse CTGF (mouse, UniProt P29268 26-348)
T3 construct: mature
T3 sequence (looked up): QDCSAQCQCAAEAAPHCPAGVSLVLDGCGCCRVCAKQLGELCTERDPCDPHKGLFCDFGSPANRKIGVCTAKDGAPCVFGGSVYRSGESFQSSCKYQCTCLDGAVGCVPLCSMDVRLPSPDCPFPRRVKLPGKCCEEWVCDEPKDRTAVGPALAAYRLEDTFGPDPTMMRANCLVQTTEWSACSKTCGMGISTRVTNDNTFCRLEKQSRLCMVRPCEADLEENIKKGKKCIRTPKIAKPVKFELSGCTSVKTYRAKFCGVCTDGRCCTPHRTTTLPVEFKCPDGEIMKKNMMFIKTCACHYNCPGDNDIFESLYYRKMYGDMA


How the values were obtained:
human CTGF [1] = biological target: T1, human CTGF; experiment: ELISA, human CTGF immobilized on the plate, HRP anti-mouse IgG detection
Method: The present inventors evaluated the binding specificity of the antibody for CTGF using an ELISA method. 20 μL of PBS solution of human CTGF (1 μg/mL) was added to a Maxisorp 384 plate (Nunc, Inc.), and immobilized by being incubated overnight at 4° C. The next day, the plate was washed once with 100 μL of washing solution (TPBS: 0.05% Tween-20-containing PBS), and then 100 μL of blocking agent (1% BSA-containing PBS) was added thereto and allowed to stand at room temperature for 1 hour. After washing once with 100 μL of TBST washing solution, a series of appropriate dilutions of the purified antibody sample were prepared and added to the plate. After incubation at room temperature for 1 hour, the plate was washed three times with 100 μL of TBST washing solution, and a goat anti-mouse IgG antibody labeled with a horseradish peroxidase (HRP-goat anti-mouse IgG antibody; Zymed Laboratories, Inc.) which was diluted 5000-fold with a 0.1% BSA-containing TBST washing solution (20 μL) was added thereto. […] After adding 40 μL of TMB chromogenic reagent (Sumitomo Bakelite Co., Ltd.) thereto and allowing it to stand at room temperature for 10 minutes, 40 μL of stopping solution (2 mol/L sulfuric acid) was added thereto to stop the reaction, and the absorbance at 450 nm was measured. Each of the antibodies was tested in duplicate, and the EC50 was analyzed by curve fitting.

monkey CTGF = biological target: T4, monkey CTGF (monkey); experiment: ELISA, CTGF immobilized on the plate, HRP anti-human IgG detection
T4 construct: mature
Method: (§1) The present inventors evaluated the binding specificity of the antibody for CTGF using an ELISA method. 20 μL of PBS solution of human CTGF (1 μg/mL) was added to a Maxisorp 384 plate (Nunc, Inc.), and immobilized by being incubated overnight at 4° C. The next day, the plate was washed once with 100 μL of washing solution (TPBS: 0.05% Tween-20-containing PBS), and then 100 μL of blocking agent (1% BSA-containing PBS) was added thereto and allowed to stand at room temperature for 1 hour. After washing once with 100 μL of TBST washing solution, a series of appropriate dilutions of the purified antibody sample were prepared and added to the plate. After incubation at room temperature for 1 hour, the plate was washed three times with 100 μL of TBST washing solution, and a goat anti-mouse IgG antibody labeled with a horseradish peroxidase (HRP-goat anti-mouse IgG antibody; Zymed Laboratories, Inc.) which was diluted 5000-fold with a 0.1% BSA-containing TBST washing solution (20 μL) was added thereto. After incubation at room temperature for 1 hour, the plate was washed three times with 100 μL of TBST washing solution. After adding 40 μL of TMB chromogenic reagent (Sumitomo Bakelite Co., Ltd.) thereto and allowing it to stand at room temperature for 10 minutes, 40 μL of stopping solution (2 mol/L sulfuric acid) was added thereto to stop the reaction, and the absorbance at 450 nm was measured. Each of the antibodies was tested in duplicate, and the EC50 was analyzed by curve fitting.
(§2) The present inventors evaluated the binding specificity of fully human 37-45 and fully human 37-45-MH1 prepared in the above Examples to human, mouse, rat and monkey CTGF using an ELISA method. Here, the same method as described in Example 4 was used, but a rabbit anti-human IgG antibody labeled with horseradish peroxidase (HRP-rabbit anti-human IgG antibody; DAKO) which was 5000-fold diluted with a 0.1% BSA-containing TBST washing solution as a secondary antibody. The test on each antibody was carried out in duplicate and EC50 was analyzed by curve fitting.

rat CTGF = biological target: T2, rat CTGF; experiment: as above
Method: as §1, §2

human CTGF [2] = biological target: T1, human CTGF; experiment: as above
Method: as §1, §2

mouse CTGF = biological target: T3, mouse CTGF; experiment: as above
Method: as §1, §2

human CTGF [3] = biological target: T1, human CTGF; experiment: SPR, Biacore 2000, antibody captured on CM5 chip (Human Antibody Capture Kit), human CTGF as analyte
Text: (§3) In order to measure the antigen-specific binding activity of fully human 37-45-MH1 in more detail, the present inventors carried out surface plasmon resonance (SPR) analysis. In the present Example, an anti-human CTGF antibody CLN1 (Patent Document 2) was used as a comparative antibody.
(§4) In the SPR analysis, Biacore 2000 (GE Healthcare Japan) was used to carry out analysis. An anti-CTGF antibody was immobilized on the surface of a Sensor Chip CM5 using a Human Antibody Capture Kit and an Amine Coupling Kit (GE Healthcare Japan). Serial dilution of the human CTGF acquired in Example 1 was made by HBS-EP solution (GE Healthcare Japan). 100 μL of the dilution was added to flow path at flow rate 50 μl/min. By this measurement system, the association rate constant (ka), the dissociation rate constant (kd), and the dissociation constant (KD) between the human CTGF protein and the anti-CTGF antibody were calculated using a data analysis software (BIA Evaluation).

human CTGF [4] = biological target: T1, human CTGF; experiment: SPR, Biacore 2000, comparison of KD with the reference antibody CLN1
Text: as §3, §4

| EC50 (human CTGF [1]) [µg/mL] | EC50 (monkey CTGF) [µg/mL] | EC50 (rat CTGF) [µg/mL] | EC50 (human CTGF [2]) [µg/mL] | EC50 (mouse CTGF) [µg/mL] | Kd (human CTGF [3]) [nM] | koff (human CTGF [3]) [s⁻¹] | fold binding activity against CLN1 (human CTGF [4]) [times] | Binder |
| --- | --- | --- | --- | --- | --- | --- | --- | --- |
| 0.0016 |  |  |  |  |  |  |  | 37-45 (antibody, V domains shown, also called 37-45 antibody) VH: QVQLVQSGAEVKKPGASVKVSCKASGYTFTGYYMYWVRQAPGQGLEWMGWINPNSGGTNYSQKFQGRVTMTRDTSISTAYMELSRLRSDDTALYYCARGSKWNYPFDYWGQGTLVTVSS VL: EIVLTQSPGTLSLSPGERATLSCRASQSVSSSYLAWYQQKPGQAPRLLIYGASRRATGIPDRFSGSGSGTDFTLTISRLEPEDFVVYFCQQYVSTPWTFGQGTKVEIKR |
|  | 0.0125 | 0.0131 | 0.0132 | 0.0124 |  |  |  | fully human 37-45 (antibody, human IgG1, kappa, V domains shown, Human Ig gamma1 and human kappa constant regions, expressed in CHO-K1SV cells; The heavy-chain variable region has an N-glycosylation motif at Asn 58 (Kabat)) VH: QVQLVQSGAEVKKPGASVKVSCKASGYTFTGYYMYWVRQAPGQGLEWMGWINPNSGGTNYSQKFQGRVTMTRDTSISTAYMELSRLRSDDTALYYCARGSKWNYPFDYWGQGTLVTVSS VL: EIVLTQSPGTLSLSPGERATLSCRASQSVSSSYLAWYQQKPGQAPRLLIYGASRRATGIPDRFSGSGSGTDFTLTISRLEPEDFVVYFCQQYVSTPWTFGQGTKVEIKR |
|  | 0.0086 | 0.0092 | 0.0104 | 0.0092 | 0.037 | 0.00016 | ≥ 12 | fully human 37-45-MH1 (antibody, human IgG1, kappa, V domains shown, It has the same light chain as fully human 37-45; Human IgG1/kappa) VH: not shown VL: EIVLTQSPGTLSLSPGERATLSCRASQSVSSSYLAWYQQKPGQAPRLLIYGASRRATGIPDRFSGSGSGTDFTLTISRLEPEDFVVYFCQQYVSTPWTFGQGTKVEIKR |
